The subject of data set [1] is CCCCCCCCCCCCCC(=O)SCCNC(=O)CCNC(=O)[C@H](O)C(C)(C)COP(=O)(O)OP(=O)(O)OC[C@H]1O[C@@H](n2cnc3c(N)ncnc32)[C@H](O)[C@@H]1OP(=O)(O)O. Kind of data set: purified protein.
Substrate in data set [2]: CCCCCCCCCCCCCC(=O)SCCNC(=O)CCNC(=O)[C@H](O)C(C)(C)COP(=O)(O)OP(=O)(O)OC[C@H]1O[C@@H](n2cnc3c(N)ncnc32)[C@H](O)[C@@H]1OP(=O)(O)O
Kind of data set: purified protein. The source holds these as a separate data set.

Read-outs that look alike come from different tables or passages of the source.

As usually defined, the Km is the substrate concentration at which the rate is half of its maximum. Consider human NMT1 (Homo sapiens), for which the Km in data set [1] turned out to be 8.24 ± 0.62 µM.

B1: human NMT2 (Homo sapiens) (protein)
chain: AKHRYQFWDTQPVPKLDEVITSHGAIEPDKDNVRQEPYSLPQGFMWDTLDLSDAEVLKELYTLLNENYVEDDDNMFRFDYSPEFLLWALRPPGWLLQWHCGVRVSSNKKLVGFISAIPANIRIYDSVKKMVEINFLCVHKKLRSKRVAPVLIREITRRVNLEGIFQAVYTAGVVLPKPIATCRYWHRSLNPRKLVEVKFSHLSRNMTLQRTMKLYRLPDVTKTSGLRPMEPKDIKSVRELINTYLKQFHLAPVMDEEEVAHWFLPREHIIDTFVVESPNGKLTDFLSFYTLPSTVMHHPAHKSLKAAYSFYNIHTETPLLDLMSDALILAKSKGFDVFNALDLMENKTFLEKLKFGIGDGNLQYYLYNWRCPGTDSEKVGLVLQ
On to B1, for which the Km in data set [2] was determined as 7.24 ± 0.79 µM.
